# In the supplement of paper PMC10724198:
# ± gives the standard deviation of the averaged measurements.
# Test system: Saccharomyces cerevisiae
# Test: protein stability index of tFT-peptide fusion (C-terminal peptide) (PSI (0-1 scale)); higher = more stable (slower turnover)
# Conditions: genetic background: wild type; temperature: 30 C
# 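Further: PSI is a weighted mean of sequencing reads over stability bins, variants kept only with over 10 reads, mCherry proximal and sfGFP distal, peptide attached via GGGS linker.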
row,Sequence,protein stability index
1,PYACQYVPCITT,0.5904 ± 0.004
2,PYPCPPRPSPPP,0.76 ± 0.034
3,PYPLSSLSPSRP,0.702 ± 0.11
4,PYPPSSLPLQPA,0.654 ± 0.025
5,PYPSPLPPAPTP,0.748 ± 0.015
6,PYQQVAESETKK,0.717 ± 0.089
7,PYVLGRDVVVLF,0.7 ± 0.06
8,PYWPLLLTNCQL,0.734 ± 0.063
9,QAIEAGPPEHGY,0.677 ± 0.036
10,QARHNMVYHEIV,0.656 ± 0.029
11,QARQMEIRRLQT,0.628 ± 0.047
12,QASEYNREQSGL,0.6732 ± 0.00076
13,QCNGDEKKKLYK,0.609 ± 0.022
14,QDECPRTTQGRV,0.656 ± 0.04
15,QDISESLLRLLR,0.7119 ± 0.0019
16,QDRATRPSHRTQ,0.684 ± 0.03
17,QEGGWKRTYDII,0.678 ± 0.046
18,QEKQDIIEDHTT,0.655 ± 0.019
19,QEPARPTGPGQS,0.628 ± 0.019
20,QESRRTTVEKQA,0.638 ± 0.011
21,QFMLLRWGFAIR,0.544 ± 0.024
22,QFTRSRSRRVRS,0.6385 ± 0.0048
23,QFVLWPSVLGLG,0.648 ± 0.054
24,QGDDNVVGAMNI,0.628 ± 0.089
25,QGKNAPERTIKQ,0.631 ± 0.025

row,Sequence,protein stability index
1,QGKRQEEGERER,0.68 ± 0.052
2,QGVLRAEAVDKG,0.622 ± 0.019
3,QHALSAPRTILP,0.654 ± 0.03
4,QHFAKAIVQTTT,0.679 ± 0.02
5,QHHPRTTPHRPS,0.714 ± 0.0097
6,QHTDNLLTHLMG,0.6551 ± 0.0028
7,QIFPLRLTWSRR,0.642 ± 0.029
8,QIGTVDEWTQQA,0.738 ± 0.12
9,QIRNNKPYSPSK,0.742 ± 0.0061
10,QKEKKKTVKTKI,0.723 ± 0.09
11,QKKKDKKKQNRT,0.666 ± 0.029
12,QKKKHRTTGKTT,0.655 ± 0.035
13,QKKKKKRNDKTQ,0.71 ± 0.049
14,QKKKKKSKQRGP,0.743 ± 0.034
15,QKKKRTKNKNKR,0.6556 ± 0.0053
16,QKKTNKKTTRNE,0.691 ± 0.013
17,QKLGNNNAKDLM,0.66 ± 0.062
18,QKLKPRKESSKN,0.698 ± 0.058
19,QKSKSSYPESYV,0.777 ± 0.062
20,QKTKTKKIRKKK,0.7014 ± 0.0018
21,QLCNQHCKMISD,0.662 ± 0.0082
22,QLRDNQNTLLQE,0.7138 ± 0.006
23,QLYKLKNMKKKN,0.675 ± 0.0085
24,QMKKDIKPRPGE,0.704 ± 0.037
25,QNKTKRMQKTKA,0.629 ± 0.047

row,Sequence,protein stability index
1,QNQKKHTRQQNQ,0.722 ± 0.072
2,QNQVERREFRFS,0.701 ± 0.088
3,QPPPDPPPPTPS,0.592 ± 0.014
4,QPRAKNFRNPCP,0.661 ± 0.1
5,QPSSYPEANRQG,0.671 ± 0.028
6,QPYTPHTAFPAQ,0.696 ± 0.011
7,QQGKWHTRRKKY,0.659 ± 0.07
8,QQKKPKKEKTTE,0.6744 ± 0.0036
9,QQKYKLIQLVII,0.584 ± 0.017
10,QQLILCLFSPFP,0.655 ± 0.015
11,QQMSLRKNQKVK,0.7 ± 0.066
12,QQVRHNVKRVVL,0.7222 ± 0.0025
13,QRLQVLIGYDRR,0.691 ± 0.039
14,QRPFKCMIKFNK,0.67 ± 0.0078
15,QRPGKKNGSGRP,0.682 ± 0.031
16,QSGQSELRVVPP,0.72 ± 0.021
17,QSPPRHPSPTAS,0.683 ± 0.082
18,QSRPRNMFRVIS,0.5469 ± 0.0045
19,QSSGGSDSVLFG,0.738 ± 0.041
20,QTKAGKRKEKRE,0.72 ± 0.12
21,QTMYFLRKEKEN,0.696 ± 0.063
22,QTNAEPPSERVT,0.655 ± 0.083
23,QTNYSNQYKEKY,0.713 ± 0.11
24,QTPRYRGLFSAL,0.639 ± 0.038
25,QTRKRESPAMVT,0.639 ± 0.02

row,Sequence,protein stability index
1,QTRQPKRSDEEK,0.686 ± 0.014
2,QTRRQKDAEHPR,0.714 ± 0.023
3,QTSWLKKTIKRE,0.678 ± 0.072
4,QVCSRKKCDSRK,0.567 ± 0.069
5,QVDITASPDRTT,0.745 ± 0.056
6,QVRPKGDPRARV,0.644 ± 0.1
7,QVVAAGRPWGVF,0.677 ± 0.011
8,QVVEANNPALSF,0.647 ± 0.02
9,QWGGEGWILGGV,0.698 ± 0.031
10,QWGRGGRHVTDI,0.669 ± 0.038
11,QWPCPTLSLRFS,0.632 ± 0.015
12,QWPNPEVLVRST,0.70875 ± 0.00048
13,QYDHGSSPRRFE,0.7005 ± 0.0041
14,QYILGLLLVPLG,0.587 ± 0.032
15,QYSLGLGQVQVI,0.662 ± 0.033
16,RAAATTELAARF,0.697 ± 0.041
17,RAACALSRRGLM,0.926 ± 0.1
18,RAAIPAHPFVSR,0.676 ± 0.027
19,RACLKSRCIAMG,0.604 ± 0.065
20,RACWGKSTGGEW,0.723 ± 0.0083
21,RADLHGFPHRCP,0.76 ± 0.024
22,RAGGSANVLAGE,0.6926 ± 0.0016
23,RAKNRFKRQGEN,0.667 ± 0.023
24,RAPFEGLRCRTG,0.66 ± 0.033
25,RAPPPATLPPLQ,0.661 ± 0.086

row,Sequence,protein stability index
1,RARARSVLGRRD,0.672 ± 0.0091
2,RAREFRSRNIGD,0.74 ± 0.0058
3,RASPVSSFSPPS,0.679 ± 0.041
4,RATMFFLFPMFP,0.622 ± 0.024
5,RAVESPDKSSCE,0.664 ± 0.11
6,RAVPLLPRVLFW,0.6819 ± 0.0047
7,RCACLSCSFLLQ,0.679 ± 0.017
8,RCALATTNHPRS,0.718 ± 0.056
9,RCHIPGRIVKTR,0.628 ± 0.046
10,RCKYLPSSRGMI,0.675 ± 0.011
11,RCLSVLGLFVGW,0.634 ± 0.033
12,RCNFHILEIRKY,0.667 ± 0.0057
13,RCRGSSWLLLCA,0.518 ± 0.016
14,RCRRTTFIELKL,0.595 ± 0.048
15,RCSYIGSAGSFF,0.732 ± 0.024
16,RCTLPLSPSCSR,0.6604 ± 0.0037
17,RCVLWSVLSTQV,0.672 ± 0.042
18,RDECLRVLAPLR,0.726 ± 0.024
19,RDFCLGFANTVC,0.642 ± 0.028
20,RDKAVAGKKGGS,0.682 ± 0.017
21,RDKIRMIDSYLT,0.696 ± 0.025
22,RDLLPPLYLPSH,0.711 ± 0.039
23,RDPWESLDRCYP,0.698 ± 0.034
24,RDTAPPPPPALL,0.788 ± 0.08
25,REGSIISYPASG,0.6989 ± 0.0019

row,Sequence,protein stability index
1,RENGKIIKKRKK,0.694 ± 0.026
2,RERVQYICYERR,0.695 ± 0.086
3,RERVVSVKLGGG,0.688 ± 0.018
4,RETSRNCGKVST,0.745 ± 0.043
5,REWGWGALVMWG,0.638 ± 0.042
6,RFGGSGGLPGGW,0.665 ± 0.031
7,RFGLRVLGGACR,0.591 ± 0.071
8,RFGSGKCLALRG,0.689 ± 0.066
9,RFGSLKWGRGCI,0.6759 ± 0.0044
10,RFKCVKPPLPRR,0.715 ± 0.03
11,RFLDVSRYAGGV,0.705 ± 0.025
12,RFLISYFYKVIR,0.56 ± 0.034
13,RFQWAFMSWSEP,0.823 ± 0.064
14,RFRCGLPMQERT,0.689 ± 0.064
15,RFRGYWSWGMTL,0.777 ± 0.13
16,RFVAFDFLGISL,0.736 ± 0.2
17,RFVHCRRKVAKR,0.667 ± 0.047
18,RFWDMGGYAGGL,0.733 ± 0.079
19,RGALQQLREHTS,0.687 ± 0.055
20,RGASLFPTPLAF,0.742 ± 0.043
21,RGCCSVAFRCVV,0.712 ± 0.066
